Experimental data published in patent publication US7033773B1, “Screening assays for G protein coupled receptor agonists and antagonists” (The General Hospital Corporation, priority 1997, dated 2006).

Assays:
rat PTHR [1] = molecular target: T1, rat PTHR (Rattus norvegicus, UniProt P25961); experiment: IP3 production (PLC activation) in LLC-PK1 cells expressing rat PTHR; type: cell-based
T1 construct: expressed in transfected cells; host or cells: LLC-PK1 porcine renal epithelial cells (EW5; also EW29, AR-C38, AR-B44)
T1 sequence (P25961 27-591): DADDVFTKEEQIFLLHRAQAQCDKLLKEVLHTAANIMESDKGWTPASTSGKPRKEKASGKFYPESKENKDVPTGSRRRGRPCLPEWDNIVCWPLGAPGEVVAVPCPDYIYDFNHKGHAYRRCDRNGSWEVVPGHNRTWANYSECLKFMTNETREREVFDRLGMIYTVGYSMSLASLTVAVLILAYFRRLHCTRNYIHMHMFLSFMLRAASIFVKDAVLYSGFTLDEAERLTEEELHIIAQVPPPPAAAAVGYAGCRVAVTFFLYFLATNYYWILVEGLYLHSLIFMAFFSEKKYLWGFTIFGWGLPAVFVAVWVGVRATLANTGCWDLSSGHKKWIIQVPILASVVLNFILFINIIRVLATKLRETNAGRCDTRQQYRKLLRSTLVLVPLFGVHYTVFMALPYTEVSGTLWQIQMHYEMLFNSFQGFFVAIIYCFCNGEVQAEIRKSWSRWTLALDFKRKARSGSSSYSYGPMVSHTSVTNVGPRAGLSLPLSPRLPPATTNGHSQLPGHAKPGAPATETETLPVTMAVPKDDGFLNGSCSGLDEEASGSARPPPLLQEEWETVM
Description: Cells were seeded into 24-well plates at a density of 2.5×10^5 cells/well and cultured for a further 2 days before study. The cells were labeled at 37° C. for 16 h before assay with 3 uCi/ml of [^3H]myo-inositol in assay medium (serum- and inositol-free DMEM (GIBCO-BRL, Grand Island, N.Y.) supplemented with 0.1% BSA). After washing the cells with prewarmed assay medium containing 30 mM LiCl, they were incubated with 0.25 ml of assay medium containing 30 mM LiCl and stimulators (or vehicle) at 37° C. for various intervals(1-30 min). IP3 formation was arrested by aspiration and immediate addition of 0.5 ml of ice-cold 5% TCA. The acid extracts then were extracted twice with two volumes of water-saturated ether and adjusted to pH 7.4 with concentrated NaOH and Tris base (final concentration=10 mM) prior to chromatography on AG 1×8 anion-exchange columns (Bio-Rad, Richmond, Calif.), as previously described (Guo, J., et al., Endocrinology 136:3884-3891 (1995)). After eluting other fractions (free [^3H]myo-inositol, glycerophosphate inositol, IP1, and IP2), IP3 fractions were collected and their content of radioactivity was determined by liquid scintillation spectrometry (Beckman, model LS 6000IC).
Responses to hPTH(1-34) or hPTH(1-31) (1000 nM) were measured in EW5 cells, which express 320,000 rat PTHRs per cell. Each value is the mean±SEM of a representative experiment performed in triplicate. Similar results were obtained in at least 3 individual experiments. The modest reduction in IP3 formation observed with hPTH(1-31) relative to hPTH(1-34) was confirmed in 3 other LLC-PK1 cell lines that expressed rat PTHRs (i.e. EW29, AR-C38 and AR-B44, which express 190,000, 630,000 and 800,000 PTHRs/cell, respectively), in which maximal IP3 formation after hPTH(1-31) (as % of hPTH(1-34) effect) was 75%, 77% and 64%, respectively.

rat PTHR [2] = molecular target: T1, rat PTHR; experiment: u-PA secretion bioassay in LLC-PK1 cells expressing rat PTHR; type: cell-based
rat PTHR [3] = molecular target: T1, rat PTHR; experiment: Cellular phosphate uptake in LLC-PK1 cells expressing rat PTHR; type: cell-based
Description: Cells were seeded into 24-well plates at a density of 2.5×10^5 cells/well and cultured for a further 2 days before study. Twenty four hours before assay, cells were refed with 0.5 ml of DMEM containing 0.1% BSA. The next day, cells were refed with serum-free medium (DMEM+0.1% BSA) containing drugs or peptides, and the incubations were continued at 37° C. under 5% CO2 in air for another 6 hr. Cells then were washed with prewarmed Buffer B without BSA and Na2HPO4 and then were incubated at 37° C. for 5 min in 0.25 ml of the same buffer containing [^32P]orthophosphate (4 uCi/ml) and 0.1 mM Na2HPO4. Phosphate uptake was arrested by adding 1 ml of ice-cold sodium-free “stop buffer” [10 mM HEPES (pH 7.4), 140 mM choline chloride, and 5 mM sodium arsenate], followed by two further washes with same buffer. The drained cell layer then was solubilized in 0.5 ml of Lysis Buffer, and cell-associated radioactivity was determined by Cerenkov counting, as previously described (Guo, J., et al., Endocrinology 136:3884-3891 (1995)).
Responses to hPTH(1-34) or hPTH(1-31) (1000 nM) were measured in EW5 cells, which express 320,000 rat PTHRs per cell. Each value is the mean±SEM of a representative experiment performed in triplicate. Similar results were obtained in at least 3 individual experiments. […]

human PTH/PTHrP receptor [4] = molecular target: T2, human PTH/PTHrP receptor (Homo sapiens, UniProt Q03431); experiment: Urokinase-type plasminogen activator (u-PA) secretion bioassay in LLC-PK1 cells expressing human PTHR; details: for secreted u-PA: peptide 1000 nM, 16 hr, mean±SEM
T2 sequence (Q03431 27-593): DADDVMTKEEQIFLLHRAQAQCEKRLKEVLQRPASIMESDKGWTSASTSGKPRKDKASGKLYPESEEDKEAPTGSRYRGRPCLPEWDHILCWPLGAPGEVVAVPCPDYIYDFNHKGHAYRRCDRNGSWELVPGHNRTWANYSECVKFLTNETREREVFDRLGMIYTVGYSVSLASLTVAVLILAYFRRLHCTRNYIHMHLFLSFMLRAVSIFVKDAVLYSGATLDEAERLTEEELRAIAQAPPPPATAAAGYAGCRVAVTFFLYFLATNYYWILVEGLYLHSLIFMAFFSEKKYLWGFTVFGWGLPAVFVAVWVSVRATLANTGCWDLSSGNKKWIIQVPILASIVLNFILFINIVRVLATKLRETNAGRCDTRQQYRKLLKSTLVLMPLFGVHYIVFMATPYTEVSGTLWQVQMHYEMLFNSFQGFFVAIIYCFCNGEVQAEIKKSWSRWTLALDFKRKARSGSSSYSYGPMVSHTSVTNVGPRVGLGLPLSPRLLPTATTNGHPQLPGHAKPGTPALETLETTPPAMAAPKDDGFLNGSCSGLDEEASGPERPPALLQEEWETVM
Description: Cells were seeded into 96-well plates at a density of 6×10^4 cells/well and used the following day. The cells were washed once with 0.2 ml and then refed with 0.1 ml of prewarmed DMEM containing 0.05% BSA. After adding each stimulator, plates were returned to the incubator at 37° C. for 16 h. Conditioned medium (5 ul) then was transferred from each well to a clean microplate. […] Activity was expressed in Ploug units/well, using purified human urokinase (Calbiochem) as a standard.
Cells were incubated with the indicated peptides (1000 nM) for 16 hr before measurement of secreted u-PA present in the medium, which was expressed as a percentage of the activity measured in vehicle-treated controls. Values shown are means±SEM of triplicate determinations.

human PTH/PTHrP receptor [5] = molecular target: T2, human PTH/PTHrP receptor; experiment: Cytosolic free calcium (fura-2) in LLC-PK1 cells expressing human PTHR; details: 100 nM peptide; HKRK B7 cells
Description: Cytosolic free calcium was measured in fura 2AM-loaded confluent monolayers of cells.
Cytosolic free calcium was measured by dual fluorescence in cells loaded with the Ca^2+-sensitive intracellular probe fura-2. Cells were seeded onto glass coverslips at a density of 40,000-600,000/cm^2 and incubated for 2 days as described above. Coverslips were washed twice with PBS before loading in phosphate-free Buffer B containing 4 uM of fura-2/AM (Molecular Probes, Eugene, Oreg.) for 30 min at room temperature (22° C.). After washing twice with fura-free Buffer B, the coverslips were mounted in a cuvette containing 2 ml of phosphate-free Buffer B at 37° C. and the emission at 510 nm in response to alternating excitation at 340 and 380 nm was monitored using a ratiometric PTI Deltascan fluorescence spectrometer with excitation and emission bandwidths of 2 nm. After achieving a stable baseline, agonists were introduced by exchange into 2 ml of fresh buffer to which 10-20 ul of concentrated agonist stock (or vehicle alone) had been added. Peptide stocks were prepared in 0.1% trifluoroacetic acid, ionomycin and phorbol esters were dissolved in dimethyl sulfoxide and all other additives were prepared in water. Maximum and minimum fluorescence signals were obtained by exposure to modified buffers containing 1 uM ionomycin plus 20 mM calcium or 2 mM EGTA in the nominal absence of calcium, respectively, and autofluorescence was estimated from signals obtained in the presence of ionomycin plus 2.5 mM MnCl2.

[6] = EW5 cells, 320,000 rat PTHRs per cell, peptide 1000 nM, mean±SEM

- maximal IP3 formation (as % of hPTH(1-34) effect) (rat PTHR [1]; AR-B44 cells, 800,000 rat PTHRs/cell): 64%
- maximal IP3 formation (as % of hPTH(1-34) effect) (rat PTHR [1]; AR-C38 cells, 630,000 rat PTHRs/cell): 77%
- maximal IP3 generation relative to that by hPTH(1-34) (rat PTHR [1]; EW5 cells (and 3 other rPTHR-expressing cell lines)): approximately 70%
- IP3 Formation (rat PTHR [1]; [6]): 316 ± 35 % of basal
- maximal IP3 formation (as % of hPTH(1-34) effect) (rat PTHR [1]; EW29 cells, 190,000 rat PTHRs/cell): 75%
- maximal PLC activation as % of the maximal response to hPTH(1-34) (rat PTHR [1]; LLC-PK1 cells that expressed rat PTHRs): 60%
- reduction of potency for PLC/PKC activation relative to hPTH(1-34) (rat PTHR [1]; via the rat PTHR): 40%
- u-PA Activity (rat PTHR [2]; [6]): 41.2 ± 1.2 units/well
- u-PA production at 16 hr (in words) (rat PTHR [2]; EW5 cells, 100 nM of either peptide): identical
- stimulation of phosphate uptake (in words) (rat PTHR [3]; EW5 cells): identical
- Phosphate uptake (rat PTHR [3]; [6]): 134 ± 3 % of basal
- u-PA bioassay activity (in words) (human PTH/PTHrP receptor [4]; HKRK B7 and HKRK B28 cells): fully active
- maximal activation of u-PA secretion compared with hPTH(1-34) (human PTH/PTHrP receptor [4]; HKRK B7 cells and AB45 cells): identical to that of hPTH(1-34)
Substance: hPTH(1-31)
- secreted u-PA (human PTH/PTHrP receptor [4]; HKRK B7 cells): 101 ± 9 percentage of the activity measured in vehicle-treated controls
- secreted u-PA (human PTH/PTHrP receptor [4]; HKRK B28 cells): 101 ± 6 percentage of the activity measured in vehicle-treated controls
- cytosolic free calcium transients (human PTH/PTHrP receptor [5]): fully activated cytosolic free calcium transients
